These results are taken from the supplement of paper PMC10567573.

The data set can be described thus: protein stability index of a GFP-peptide fusion (GPS, HEK-293T) (PSI 1-6); higher = more stable. The note with it: c terminus: a fixed tail appended.

± gives the standard deviation.
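Also: 24-mer peptide tiles fused after GFP, lentivirally expressed, FACS-sorted into six equal bins by GFP/DsRed ratio, decoded by Illumina sequencing, PSI is the read-weighted mean bin number.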

Turning to DVSLPRGAFPPRGPRPVQSVVPEM [CDK4], the protein stability index is, setting by setting: (treatment: DMSO) 4.01 ± 0.33; (treatment: MLN4924 1 uM, 8 h) 3.94 ± 0.33.

Turning to DWEAVPQRKLKPPIVPKIAGDGDT [PRKX], the protein stability index came out at 4.9 ± 0.21 (treatment: DMSO) and 4.87 ± 0.24 (treatment: MLN4924 1 uM, 8 h).

As to EAKAVGLISHVLEQNQEGDAAYRK [AUH], the protein stability index runs as follows: (treatment: DMSO) 5.22 ± 0.22; (treatment: MLN4924 1 uM, 8 h) 5.18 ± 0.28.

Turning to EAPKYHIPYWVAYYLALLLSLLVM [NSDHL], the protein stability index worked out at 2.63 ± 0.36 (treatment: DMSO) and 2.53 ± 0.69 (treatment: MLN4924 1 uM, 8 h).

In turn, EAVTCGNTEVPARNLYAYIQKLTQ [PTPRD] gave a protein stability index (treatment: DMSO) of 2.81 ± 0.19 and a protein stability index (treatment: MLN4924 1 uM, 8 h) of 2.96 ± 0.36.

As to ECEEGELSFYDAERHCHLYTFHAR [TRIM35], the protein stability index was 3.18 ± 0.27 (treatment: DMSO) and 3.21 ± 0.24 (treatment: MLN4924 1 uM, 8 h).

For the sequence EDENIEVVYSKAASVPKVETVKSD [EIF5], the protein stability index amounted to 5.44 ± 0.41 (treatment: DMSO) and 5.4 ± 0.19 (treatment: MLN4924 1 uM, 8 h).

Consider EDPEENPYGPPPDAVQTSLMDEGA [RBBP5], for which the protein stability index by setting is: (treatment: DMSO) 5.56 ± 0.33; (treatment: MLN4924 1 uM, 8 h) 5.46 ± 0.29.

On to EDSAQNCFALIPKAPKKDVIKMLV [EFHC1], for which the protein stability index was 2.69 ± 0.4 (treatment: DMSO) and 2.97 ± 0.26 (treatment: MLN4924 1 uM, 8 h).

Take EEAEWESINVLLMMHGLKPLSLVK [CEP70]: the protein stability index is 2.36 ± 0.66 (treatment: DMSO) and 2.31 ± 0.35 (treatment: MLN4924 1 uM, 8 h).

On to EEARRNRLMRDMAQLRLQLEVSQL [SMG5], for which the protein stability index came out at 2.25 ± 0.27 (treatment: DMSO) and 2.41 ± 0.29 (treatment: MLN4924 1 uM, 8 h).

Consider EEDSILIIPTPDEEEKILRVKLEE [ZNF24], for which the protein stability index reads like this: (treatment: DMSO) 5.03 ± 0.14; (treatment: MLN4924 1 uM, 8 h) 5 ± 0.31.

With EEETVTTKHIHITQATETTTTRHK [CLINT1], the protein stability index came to 5.15 ± 0.2 (treatment: DMSO) and 5.19 ± 0.44 (treatment: MLN4924 1 uM, 8 h).

For EEGPTVVLNPHPSLGYKEIRKGES [CHGA], the protein stability index reads like this: (treatment: DMSO) 4.96 ± 0.29; (treatment: MLN4924 1 uM, 8 h) 5.03 ± 0.27.

Take EEHGLQQERPRPEPGRLGSSSPAS [PXN]: the protein stability index runs as follows: (treatment: DMSO) 5.25 ± 0.43; (treatment: MLN4924 1 uM, 8 h) 5.1 ± 0.15.

Turning to EENRLREELRQEWEAKQEKIKSEE [FAM50A], the protein stability index runs as follows: (treatment: DMSO) 5.59 ± 0.14; (treatment: MLN4924 1 uM, 8 h) 5.52 ± 0.21.

EEPQWVPDKECRRCMQCDAKFDFL [ZFYVE21] yielded a protein stability index (treatment: DMSO) of 2.85 ± 0.45 and a protein stability index (treatment: MLN4924 1 uM, 8 h) of 2.95 ± 0.39.

In the case of EFRRWRDTGVAFELRDSSAYHVPN [DNAAF3], the protein stability index reads like this: (treatment: DMSO) 2.75 ± 0.24; (treatment: MLN4924 1 uM, 8 h) 3 ± 0.32.

EFSRATAEKVNQDMCMKVPDDPEH [CRYL1] gave a protein stability index (treatment: DMSO) of 5.62 ± 0.17 and a protein stability index (treatment: MLN4924 1 uM, 8 h) of 5.12 ± 0.75.

As to EFYHDEFKRWIYLNDQNLCIPASS [GAN], the protein stability index came to 2.75 ± 0.28 (treatment: DMSO) and 2.74 ± 0.13 (treatment: MLN4924 1 uM, 8 h).

On to EGCKSFFKRSVRRNLSYTCRANRN [NR2F2], for which the protein stability index stood at 3.34 ± 0.36 (treatment: DMSO) and 3.52 ± 0.31 (treatment: MLN4924 1 uM, 8 h).

With EGHQAWIVGIVEKGNRTARIIDKP [SEPHS2], the protein stability index is, setting by setting: (treatment: DMSO) 1.95 ± 0.24; (treatment: MLN4924 1 uM, 8 h) 2.42 ± 0.43.

Regarding EHGDQLLSIRCQHQEQVEDLTASH [MTUS2], the protein stability index stood at 5.25 ± 0.23 (treatment: DMSO) and 5.09 ± 0.22 (treatment: MLN4924 1 uM, 8 h).

In the case of EHGYENMNHFTVNLNREEKIIREI [TRIM55], the protein stability index was determined as 3.64 ± 0.19 (treatment: DMSO) and 3.85 ± 0.27 (treatment: MLN4924 1 uM, 8 h).

EIATKPHEKIGFPAARRCHSCVQI [KLHDC10]: the protein stability index is, setting by setting: (treatment: DMSO) 2.43 ± 0.29; (treatment: MLN4924 1 uM, 8 h) 2.59 ± 0.2.

For the sequence EKEMKAQEQRLGIRISMSHEEEPL [GMPPB], the protein stability index amounted to 5.23 ± 0.25 (treatment: DMSO) and 5.24 ± 0.086 (treatment: MLN4924 1 uM, 8 h).

Regarding EKEMQKMNPYKIDIGAVYSHRPNQ [PRIM1], the protein stability index (treatment: DMSO) amounted to 3.64 ± 0.43 and the protein stability index (treatment: MLN4924 1 uM, 8 h) turned out to be 3.44 ± 0.32.

Consider EKFSDEGDSDSALDSVSPCPSSPK [DLC1], for which the protein stability index was determined as 5.41 ± 0.51 (treatment: DMSO) and 5.58 ± 0.13 (treatment: MLN4924 1 uM, 8 h).

Regarding ELADHIERLKANDNLKFSQEYESI [PTPRD], the protein stability index by setting is: (treatment: DMSO) 3.48 ± 0.25; (treatment: MLN4924 1 uM, 8 h) 3.74 ± 0.28.

ELAEATWCGISTDMWRSENQNRAY [ZBED1]: the protein stability index turned out to be 2.84 ± 0.33 (treatment: DMSO) and 2.8 ± 0.44 (treatment: MLN4924 1 uM, 8 h).

The sequence ELAPDFVGDILWEHLEILQKEDVK [ETS1] showed a protein stability index (treatment: DMSO) of 3.95 ± 0.48 and a protein stability index (treatment: MLN4924 1 uM, 8 h) of 4.17 ± 0.29.

In turn, ELEDKDGLQSAQPTEGQGSLLTNW [MYBL2] came in with a protein stability index (treatment: DMSO) of 5.03 ± 0.36 and a protein stability index (treatment: MLN4924 1 uM, 8 h) of 5.35 ± 0.31.

Regarding ELERIGPQHQAGSDSLLTGMAFFK [CNOT7], the protein stability index runs as follows: (treatment: DMSO) 3.25 ± 0.34; (treatment: MLN4924 1 uM, 8 h) 3.62 ± 0.11.

With ELLATGDKGGRVVIFQREQESKNQ [PPP2R2B], the protein stability index stood at 3.79 ± 0.82 (treatment: DMSO) and 3.91 ± 0.34 (treatment: MLN4924 1 uM, 8 h).

Where the note is “treatment: DMSO”, ELLTCHSAEYVGHLRATEKMKTRE [HDAC6] came in with a protein stability index of 3.82 ± 0.1.

With ELRFLLVYLHGDDHQDSDEFCRNT [FAF2], the protein stability index turned out to be 2.29 ± 0.23 (treatment: DMSO) and 2.43 ± 0.32 (treatment: MLN4924 1 uM, 8 h).

Take ELSEAAEAQHGPHSAVARISRAQY [STX11]: the protein stability index turned out to be 4.53 ± 0.24 (treatment: DMSO) and 4.63 ± 0.15 (treatment: MLN4924 1 uM, 8 h).
